Laboratory results taken from PMC11741606.

Key:
[1] = target: PDCoV RBD (receptor-binding domain of the porcine deltacoronavirus spike protein); assay: SPR
[2] = target: pig aminopeptidase N ectodomain fused with the Fc domain of human IgG (pig (Sus scrofa)) (UniProt P15145); assay: SPR; hFc-tagged APN from concentrated supernatant captured on a protein A sensor chip (>1000 RU); serially diluted RBD flowed over in PBST; BIAcore 8K, single-cycle mode; 1:1 Langmuir model; mean ± SD of three experiments
[3] = target: chicken aminopeptidase N ectodomain fused with the Fc domain of human IgG (chicken (Gallus gallus)) (UniProt O57579); assay: as above
[4] = target: dog aminopeptidase N ectodomain fused with the Fc domain of human IgG (dog (Canis lupus familiaris)) (UniProt P79143); assay: as above

pig aminopeptidase N ectodomain fused with the Fc domain of human IgG (pig (Sus scrofa)), sequence (P15145 33-963): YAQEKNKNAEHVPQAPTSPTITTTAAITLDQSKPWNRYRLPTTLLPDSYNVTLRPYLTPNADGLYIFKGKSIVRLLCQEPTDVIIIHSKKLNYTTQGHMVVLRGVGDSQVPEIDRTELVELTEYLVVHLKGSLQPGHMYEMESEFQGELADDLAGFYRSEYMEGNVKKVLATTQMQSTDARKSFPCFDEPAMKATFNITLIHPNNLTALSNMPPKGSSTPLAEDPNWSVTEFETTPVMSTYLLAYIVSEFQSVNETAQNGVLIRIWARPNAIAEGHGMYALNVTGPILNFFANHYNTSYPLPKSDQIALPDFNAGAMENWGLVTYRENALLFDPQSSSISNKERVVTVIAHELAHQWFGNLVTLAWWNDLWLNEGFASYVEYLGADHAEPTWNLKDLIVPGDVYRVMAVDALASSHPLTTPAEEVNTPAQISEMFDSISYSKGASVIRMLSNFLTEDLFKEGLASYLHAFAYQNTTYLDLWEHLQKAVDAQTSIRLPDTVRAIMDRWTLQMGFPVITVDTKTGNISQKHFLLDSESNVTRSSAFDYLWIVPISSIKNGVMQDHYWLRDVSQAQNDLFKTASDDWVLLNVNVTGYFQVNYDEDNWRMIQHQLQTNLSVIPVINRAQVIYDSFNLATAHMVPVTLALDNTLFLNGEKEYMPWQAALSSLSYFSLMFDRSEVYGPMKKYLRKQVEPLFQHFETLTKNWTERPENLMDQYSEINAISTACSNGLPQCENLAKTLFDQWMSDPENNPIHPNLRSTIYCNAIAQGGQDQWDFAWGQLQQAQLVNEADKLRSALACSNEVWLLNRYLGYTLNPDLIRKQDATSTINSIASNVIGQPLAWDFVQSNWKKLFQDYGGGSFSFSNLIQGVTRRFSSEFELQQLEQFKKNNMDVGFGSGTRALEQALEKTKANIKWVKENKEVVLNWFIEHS
chicken aminopeptidase N ectodomain fused with the Fc domain of human IgG (chicken (Gallus gallus)), sequence (O57579 32-972): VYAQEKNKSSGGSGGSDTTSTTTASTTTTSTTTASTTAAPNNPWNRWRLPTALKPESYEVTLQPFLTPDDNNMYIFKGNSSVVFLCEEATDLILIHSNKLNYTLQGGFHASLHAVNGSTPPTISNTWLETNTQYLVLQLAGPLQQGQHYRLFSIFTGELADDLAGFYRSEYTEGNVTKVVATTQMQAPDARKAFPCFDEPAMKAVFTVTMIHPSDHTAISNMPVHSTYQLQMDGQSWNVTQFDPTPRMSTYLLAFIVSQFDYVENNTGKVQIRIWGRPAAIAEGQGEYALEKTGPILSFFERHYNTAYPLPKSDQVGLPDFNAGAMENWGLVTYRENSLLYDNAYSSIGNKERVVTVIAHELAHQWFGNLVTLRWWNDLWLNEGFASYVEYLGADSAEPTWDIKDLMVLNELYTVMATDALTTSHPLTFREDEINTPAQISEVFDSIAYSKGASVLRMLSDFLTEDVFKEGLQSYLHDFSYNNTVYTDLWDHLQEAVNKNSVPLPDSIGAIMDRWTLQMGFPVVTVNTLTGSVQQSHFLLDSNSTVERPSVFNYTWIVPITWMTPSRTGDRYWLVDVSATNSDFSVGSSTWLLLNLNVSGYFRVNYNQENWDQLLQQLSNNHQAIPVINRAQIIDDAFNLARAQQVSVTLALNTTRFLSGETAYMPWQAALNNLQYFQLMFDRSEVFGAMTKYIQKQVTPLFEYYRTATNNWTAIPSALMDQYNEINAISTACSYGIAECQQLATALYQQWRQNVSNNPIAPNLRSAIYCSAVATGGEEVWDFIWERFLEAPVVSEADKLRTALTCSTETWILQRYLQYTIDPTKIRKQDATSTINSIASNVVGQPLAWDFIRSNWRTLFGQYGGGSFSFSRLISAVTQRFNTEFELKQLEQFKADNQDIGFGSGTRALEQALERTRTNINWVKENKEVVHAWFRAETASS

Substance | Kd [1] | further results
dog aminopeptidase N ectodomain fused with the Fc domain of human IgG (from UniProt P79143) D750E | 148 nM | –
PDCoV RBD (receptor-binding domain of the porcine deltacoronavirus spike protein) (domain or fragment) | – | Kd [2]: 12800 nM; Kd [3]: 3030 nM; Kd [4]: 840 nM
dog aminopeptidase N ectodomain fused with the Fc domain of human IgG (from UniProt P79143) Y375F | 350 nM | –
TGEV RBD (receptor-binding domain of the transmissible gastroenteritis coronavirus spike protein) (domain or fragment) | – | Kd [2]: 2770 nM; Kd [4]: 20 nM
dog aminopeptidase N ectodomain fused with the Fc domain of human IgG (from UniProt P79143) Q753E | 783 nM | –
dog aminopeptidase N ectodomain fused with the Fc domain of human IgG (from UniProt P79143) R325N | 10500 nM | –
dog aminopeptidase N ectodomain fused with the Fc domain of human IgG (from UniProt P79143) T754N | 4060 nM | –
dog aminopeptidase N ectodomain fused with the Fc domain of human IgG (from UniProt P79143) Y797H | 1220 nM | –
dog aminopeptidase N ectodomain fused with the Fc domain of human IgG (from UniProt P79143) H751R | 1450 nM | –
dog aminopeptidase N ectodomain fused with the Fc domain of human IgG (from UniProt P79143) E757D | 423 nM | –
